From article PMC10881024, “No evidence for a direct extracellular interaction between human Fc receptor–like 3 (MAIA) and the sperm ligand IZUMO1” (Science Advances, 2024)

Target: T1, human IZUMO1 entire ectodomain, biotinylated, rat Cd4 domains 3 and 4 tagged (bait construct) (human, UniProt Q8IYV9 22-285, enzymatically biotinylated (BirA) on the biotinylation target sequence)
T1 construct: IZUMO1, human, entire ectodomain, truncated at P285 of Q8IYV9; Monomer as expressed; also called IZUMO1 bait; biotinylated monomeric IZUMO1; source: HEK293-6E, transient transfection, cotransfected with secreted BirA; conditioned medium dialysed in PBS, or purified from spent medium on Ni-NTA (SAVEXIS); not shown: domains 3 and 4 of rat CD4, C-terminal, kept
Experiment: SAVEXIS; purified monomeric biotinylated baits at 13.4 nM captured on streptavidin-coated plates 16 hours at 4°C; preys made multimeric by clustering biotinylated monomers around streptavidin-HRP, 4.4 nM, 1 hour at room temperature; HBS-T washes with desthiobiotin; tetramethylbenzidine, absorbance at 650 nm
Settings: both partners purified

T1 sequence (Q8IYV9 22-285): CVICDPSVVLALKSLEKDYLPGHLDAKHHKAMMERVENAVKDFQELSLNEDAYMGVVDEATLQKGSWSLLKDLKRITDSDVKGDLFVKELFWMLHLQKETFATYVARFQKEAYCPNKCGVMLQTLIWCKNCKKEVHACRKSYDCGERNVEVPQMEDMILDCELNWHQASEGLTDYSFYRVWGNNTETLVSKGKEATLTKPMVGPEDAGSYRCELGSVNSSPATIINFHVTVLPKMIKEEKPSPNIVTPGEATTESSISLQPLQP

B1: human JUNO entire ectodomain, biotinylated, rat Cd4 domains 3 and 4 tagged (bait construct) (domain or fragment, UniProt A6ND01 20-231, looked up)
chain: GDELLNICMNAKHHKRVPSPEDKLYEECIPWKDNACCTLTTSWEAHLDVSPLYNFSLFHCGLLMPGCRKHFIQAICFYECSPNLGPWIQPVGSLGWEVAPSGQGERVVNVPLCQEDCEEWWEDCRMSYTCKSNWRGGWDWSQGKNRCPKGAQCLPFSHYFPTPADLCEKTWSNSFKASPERRNSGRCLQKWFEPAQGNPNVAVARLFASSAP
modifications: enzymatically biotinylated (BirA) on the biotinylation target sequence
notes: JUNO, human, entire ectodomain, truncated at P231 of A6ND01; also called JUNO bait; human JUNO (bait); source: HEK293-6E, transient transfection, cotransfected with secreted BirA; conditioned medium dialysed in PBS (AVEXIS), or purified from spent medium on Ni-NTA (SAVEXIS); not shown: domains 3 and 4 of rat CD4, C-terminal, kept
B1: binds.
